The results in this text go back to PMC7810988, “Inositol pyrophosphates promote the interaction of SPX domains with the coiled-coil motif of PHR transcription factors to regulate plant phosphate homeostasis”.

One data set addresses AtPHR1 MYB-CC Olig2 (Arabidopsis thaliana, UniProt Q94CL7 222-358, L317N;L327N;I341N). The data set can be described thus: GCI; 4 C, 300 mM NaCl; GCI at 4 C: AtPHR1 in 20 mM HEPES pH 7.5, 300 mM NaCl; OsPHR2 in 20 mM HEPES pH 7.9, 200 mM NaCl. EMSA: LI-COR Odyssey kit buffer without optional components, 50 nM oligo, 30 min at room temperature, 5% TBE gel in 0.5x TBE. The conditions noted are these: protein: recombinant; tags: His6 N-terminal, TEV-cleaved; label: 5'-biotin on strand 1; blunt. (A gel shift assay detects complexes by their altered migration in electrophoresis.)

Another data set has as its target AtPHR1 MYB-CC Olig1 (Arabidopsis thaliana, UniProt Q94CL7 222-358, L319N;I333N;L337N). The data set can be described thus: EMSA; indistinguishable from wild type; GCI at 4 C: AtPHR1 in 20 mM HEPES pH 7.5, 300 mM NaCl; OsPHR2 in 20 mM HEPES pH 7.9, 200 mM NaCl. EMSA: LI-COR Odyssey kit buffer without optional components, 50 nM oligo, 30 min at room temperature, 5% TBE gel in 0.5x TBE. The conditions noted are these: protein: recombinant; tags: His6 N-terminal, TEV-cleaved; label: 5'-IRD800 on both strands; blunt.

AtPHR1 MYB-CC Olig1, sequence (Q94CL7 222-358 L319N/I333N/L337N): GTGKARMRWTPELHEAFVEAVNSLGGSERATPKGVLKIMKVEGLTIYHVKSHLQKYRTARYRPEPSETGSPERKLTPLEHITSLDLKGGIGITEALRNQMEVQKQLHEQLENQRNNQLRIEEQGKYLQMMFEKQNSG
AtPHR1 MYB-CC Olig2, sequence (Q94CL7 222-358 L317N/L327N/I341N): as the sequence (Q94CL7 222-358 L319N/I333N/L337N) above, with L96N, N98L, L106N, N112I, N116L, I120N counted along it

B1: pAtSPX1 biotin (dsDNA)
DNA 1: CAGAGAAAAAAGGATATTCTAATTAGAAACCTTAAGAATATTCTTTTTAATCCC
DNA 2: GGGATTAAAAAGAATATTCTTAAGGTTTCTAATTAGAATATCCTTTTTTCTCTG
Consider B1, for which the binding signal in the data set with AtPHR1 MYB-CC Olig2 is ~20 fold reduced affinity vs wild type.

B2: IRD800-pAtSPX1 (dsDNA)
DNA 1: CAGAGAAAAAAGGATATTCTAATTAGAAACCTTAAGAATATTCTTTTTAATCCC
DNA 2: GGGATTAAAAAGAATATTCTTAAGGTTTCTAATTAGAATATCCTTTTTTCTCTG
For B2, the binding result in the data set with AtPHR1 MYB-CC Olig1 is recorded as “binds”.
